These results are taken from publication PMC9428257.

The assay addresses T1, human APRIL (a proliferation-inducing ligand) (human), O75888.
T1 chain: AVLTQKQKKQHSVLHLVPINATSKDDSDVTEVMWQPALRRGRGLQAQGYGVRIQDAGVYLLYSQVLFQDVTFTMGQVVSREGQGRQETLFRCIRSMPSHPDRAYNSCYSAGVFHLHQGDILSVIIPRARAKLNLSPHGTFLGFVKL
Nature of the assay: FACS. As to conditions: domain or fragment; chains chain; remark: other sources report otherwise.

Broadly, the Kd is the constant that tells how readily two partners part at equilibrium.

B1: yeast-displayed wild-type sBCMA (human BCMA extracellular domain, Met1-Ala54), Q02223 1-54 (protein)
chain: MLQMAGQCSQNEYFDSLLHACIPCQLRCSSNTPPLTCQRYCNASVTNSVKGTNA
Consider B1, for which the Kd was determined as 0.025 nM.
